Molecular target: MobK-6His (Klebsiella pneumoniae (plasmid pIGRK))
Experiment: cross-linking; about 400 ng MobK-6His incubated with increasing glutaraldehyde (0%, 0.001%, 0.0025%, 0.005%, 0.025%, 0.05%); SDS-PAGE and Western blot with anti-6His antibody; monomer to dimer

Substance: MobK-6His (enzyme)
- stoichiometry N: 2

From paper PMC8152469
